Three molecules from patent publication US20030175925A1, “Nicotinamide ribonucleoside kinase” (priority 2001, published 2003) can be followed below.

Assay [1] in a line: discontinuous spectral NMNATse assay coupled to alcohol dehydrogenase (NAD to NADH, 340 nm). To be noted: specific activity; 37° C., pH 7.5, 2 mM ATP, NMN substrate; 1 unit = 1 micromole NADH per minute. In kind it is biochemical. The procedure:
The discontinuous spectral NMNATse assay procedure (used for both human NadD2_HS and NadR) coupled to alcohol dehydrogenase (ADH) catalyzed conversion of NAD to NADH was adapted from Balducci, E., et al., Biochem. J., 310:395-400 (1995), as described in U.S. Ser. No. 09/550,398, filed Apr. 14, 2000. The assay was performed in disposable UV-transparent plastic cuvettes in a 6-cuvette autosampler of Beckman DU-640 set at 37° C. The 500 μL mixture contained 100 mM HEPES, pH 7.5, 115 mM ethanol, 40 mM semicarbazide, 2 mM ATP, 3 units of ADH (Sigma), and 0.2-2 milliunits of NMNATse (0.1-10 μg depending on specific activity). A reaction was initiated by adding 10 μL of 50 mM NMN, and monitored at 340 nm over 20 minutes. An extinction coefficient of NADH equal to 6.22 mM^−1 cm^−1 was used for rate calculations. One unit of enzyme was defined as a quantity capable of producing 1 micromole of NADH per minute.

The nature of assay [2]: discontinuous spectral NRKse assay coupled to NadD2_HS (NMNATse) and ADH. In kind it is biochemical. The conditions noted are these: for RATIO: ratio NmR Kinase / NMNATse specific activity; for NmR Kinase: specific activity, 37° C., pH 8.0, 0.8 mM NmR, ATP, 1 unit = 1 micromole NADH per minute; for NRKse and NMNATse activity (summary in words): NMNATse and NRKse assays together. The procedure:
The discontinuous spectral NRKse assay was based on enzymatic coupling of NmR→NMN conversion to production of NAD, catalyzed by excess amounts of recombinant purified NadD2_HS enzyme (NMNATse). NAD production was further coupled to NADH conversion by ADH, as in the NMNATse assay described above.
The assay was performed in disposable UV-transparent plastic cuvettes in a 6-cuvette autosampler of Beckman DU-640 set at 37° C. The 500 μL mixture contained 100 mM Tris/HCl pH 8.0, 115 mM ethanol, 40 mM semicarbazide, 0.8 mM NmR, 0.15 units of NadD2_HS, 3 units of ADH (Sigma), and 0.2-2 milliunits of NRKse (0.2-2 μg, depending on the specific activity). A reaction was initiated by adding 50 μL of 50 mM ATP, and monitored at 340 nm over 20 minutes. An extinction coefficient of NADH equal to 6.22 mM^−1 cm^−1 was used for rate calculations. One unit of enzyme was defined as a quantity capable of producing 1 micromole of NADH per minute.

B1: NadR H. influenzae; N-terminal domain: N-terminal domain of NadR from H. influenzae, amino acids 38-212, only NMNATse domain (protein, UniProt P44308 38-212, looked up, fragment)
chain: YNKHTQFLRYQEQIMSKTKEKKVGVIFGKFYPVHTGHINMIYEAFSKVDELHVIVCSDTVRDLKLFYDSKMKRMPTVQDRLRWMQQIFKYQKNQIFIHHLVEDGIPSYPNGWQSWSEAVKTLFHEKHFEPSIVFSSEPQDKAPYEKYLGLEVSLVDPDRTFFNVSATKIRTTPFQ
On to B1, for which, in assay [1], the NMNATse was determined as 3 Un/mg. In assay [2], the RATIO is below 0.001 and the “NmR Kinase” value is below 0.003 Un/mg.

B2: NadR Salmonella: full-size NadR protein from Salmonella typhimurium, all three domains (HTH, NMNATse, NRKse), His-tagged recombinant (protein, UniProt P24518 1-410, looked up)
chain: MSSFDYLKTAIKQQGCTLQQVADASGMTKGYLSQLLNAKIKSPSAQKLEALHRFLGLEFPRRQKNIGVVFGKFYPLHTGHIYLIQRACSQVDELHIIMGYDDTRDRGLFEDSAMSQQPTVSDRLRWLLQTFKYQKNIRIHAFNEEGMEPYPHGWDVWSNGIKAFMAEKGIQPSWIYTSEEADAPQYLEHLGIETVLVDPERTFMNISGAQIRENPFRYWEYIPTEVKPFFVRTVAILGGESSGKSTLVNKLANIFNTTSAWEYGRDYVFSHLGGDEMALQYSDYDKIALGHAQYIDFAVKYANKVAFIDTDFVTTQAFCKKYEGREHPFVQALIDEYRFDLVILLENNTPWVADGLRSLGSSVDRKAFQNLLVEMLKENNIEFVHVKEADYDGRFLRCVELVKEMMGEQG
modifications: full-length His tag
notes: full-size NadR protein from Salmonella typhimurium, all three domains (HTH, NMNATse, NRKse), His-tagged recombinant
B2 returned an NMNATse in assay [1] of 0.04 Un/mg. In assay [2], the “NRKse and NMNATse activity (summary in words)” value was “possess NRKse activity in addition to NMNATse activity”; the RATIO came out at 125; the “NmR Kinase” value is 5 Un/mg.

B3: NadR H. influenzae: N-truncated NadR protein from H. influenzae, amino acids 38-407, both NMNATse and NRKse domains (protein, UniProt P44308 38-407, looked up, fragment)
chain: YNKHTQFLRYQEQIMSKTKEKKVGVIFGKFYPVHTGHINMIYEAFSKVDELHVIVCSDTVRDLKLFYDSKMKRMPTVQDRLRWMQQIFKYQKNQIFIHHLVEDGIPSYPNGWQSWSEAVKTLFHEKHFEPSIVFSSEPQDKAPYEKYLGLEVSLVDPDRTFFNVSATKIRTTPFQYWKFIPKEARPFFAKTVAILGGESSGKSVLVNKLAAVFNTTSAWEYGREFVFEKLGGDEQAMQYSDYPQMALGHQRYIDYAVRHSHKIAFIDTDFITTQAFCIQYEGKAHPFLDSMIKEYPFDVTILLKNNTEWVDDGLRSLGSQKQRQQFQQLLKKLLDKYKVPYIEIESPSYLDRYNQVKAVIEKVLNEEEIS
B3 had an NMNATse in assay [1] of 0.9 Un/mg. For the same molecule, in assay [2], the “NRKse and NMNATse activity (summary in words)” value is on record as “possess NRKse activity in addition to NMNATse activity”; the RATIO came out at 0.02; the “NmR Kinase” value turned out to be 0.02 Un/mg.
